Laboratory results taken from the nanobody polyreactivity screen of Harvey et al. (2022).

Assay: yeast display, Sf9 membrane polyspecificity reagent, FACS + sequencing; frameworks hold sequencing errors
Summary of the method: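 After 36–48 hours of galactose induction, yeast (Saccharomyces cerevisiae BJ5465) displaying a synthetic nanobody library were stained at 4 °C for 1 hour with 10% biotinylated, detergent-solubilized Sf9 membrane reagent. Streptavidin microbeads enriched the stained cells before FACS sorting into low and high (top ~1%) gates on anti-HA and streptavidin fluorescence. Each clone's polyreactivity label reflects its gate of origin.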

| Sequence | polyreactivity (PSR sort gate) |
| --- | --- |
| QVQLVESGGGLVLAGGSLRLSCAASGRIFGTNAMGWYRQAPGKERELVAAISLSGGRTYADSVKGRFTISRDNAKNTVYLQMNSLKPEDTAVYYCNADSAGITRSRSELDYWGQGTQVTVSS | low polyreactivity |
| QVQLVESGGGLVLAGGSLRLSCAASGRTFGIYAMGWYRQAPGKEREIVAAISWSGTSTHYADSVKGRFTISRDNAKNTVYLQMNSLKPEDTAVYYCAAAKTGRGSGTTGFGYWGQGTQVTVSS | high polyreactivity |
| QVQLVESGGGLVLAGGSLRLSCAASGSILEGYVMGWYRQAPGKERELVAAISRGGGSTYYADSVKGRFTISRDNAKNTVYLQMNSLKPEDTAVYYCAARFAASYYWGQGTQVTVSS | high polyreactivity |
| QVQLVESGGGLVLAGGSLRLSCAASGSILYYNAMGWYRQAPVKERELVAAITLDGASTYYSDSVKGLFTISRDNAKNTVYLQMNSLKPEDTAGYYCAADYAYWLSGYDYWGQGSQVTVSS | low polyreactivity |
| QVQLVESGGGLVLAGGSLRLSCAASGSTFARNAMGWYRHAPGKERELVAAISWNGGRTYYADSVKGRFTISRDNAKNTVYLQMNSLKPEDTAVYYCAAKYVKDYWSDFDYWGQGTQVTVSS | high polyreactivity |
| QVQLVESGGGLVLAGGSLRLSCAASGSTFEYNAMGWYRPAPGKERELVASSTNYADSVKGRFTISRDNAKNTVSLQRNSLKPEDTAVNYSAREQGVNRNHDYWGQGTQVTVSS | low polyreactivity |
| QVQLVESGGGLVLAGGSLRLSCASSGRTFPSYAKGWYRQAPGKERELVAAITRGGSTNYADSVKGRFTISRDNAKNTVYLQMNSLKPEDTAVYYCAAARWRWQLARDDYWGQGTQVTVSS | high polyreactivity |
| QVQLVESGGGLVLAGGSLRLSSAASGFTFSPYAMGWYRQAPGKERELVPAISASGGRTYYADSVKGRFTISRDYAKNTVYLQMNSLKPEDTAVYYCAAKLYDSGGRYWYDYWGQGTQVTVSS | high polyreactivity |
| QVQLVESGGGLVNAGGSLRLSCAASGITFWGYAMGWYRQAPGKERELVAAITSGGTTYYADSVKGRFTISRDNAKNTVYLQMNSLKPEDTAVYYCNARYPSADDWGQGTQVTVSS | high polyreactivity |
| QVQLVESGGGLVPAGGSLRLICAGSAFTFRSYAIGWYRQAPGQERELVAAISLGGTSTYYADSVKGRFTISRDNAKNTVYLQMNSLKPEDTAVYSCAARSYGHYGYWGQGTQVTVSS | high polyreactivity |
| QVQLVESGGGLVPAGGSLRLSCAASGFIFVTNGMGWYRQAPGKERELVAAITDNGGSTYYADSGKGRFTISRDNAKNTVYLQMNSLKPEDTAVYYCNADRVVGPYDGYDYWGQGTQVTVSS | low polyreactivity |
| QVQLVESGGGLVPAGGSLRLSCAASGFTFSGYAMGWYRQAPGKERELVAAITRRGGSTYYADSVKGRFTISRDNAKNTVYLQMNSLKPEDTAVYYCAADSGYPWELDYWGQGTQVTVSS | low polyreactivity |
| QVQLVESGGGLVPAGGSLRLSCAASGFTFTRYAMGWYRQARGKERELVAAISWNGGSTYYADSVKGRFTISRDNAKKTVYLQMNSLKPEDTAVYYCAVRFKYQWSNFGYWGQGTQVTVSS | high polyreactivity |
| QVQLVESGGGLVPAGGSLRLSCAASGLTFYYYAMGWSRQAPGKERELVAGISGSDGSTYYADSVKGRFTISRDNAKNTVYLQMNSLKPEDTAVYYFAAEYYYPWPLYYITDGIYDMYYWGQGTQVTVSS | low polyreactivity |
| QVQLVESGGGLVPAGGSLRLSCAASGRIFYYYAMGWYRQAPGKERELVAAISSSGGSTYYADSVKGRFTISRDNAKKTVYLQMNSLKPEDTAVYYCAKRYALSGYYRLYDYWGQGTQVTVSS | high polyreactivity |
| QVQLVESGGGLVPAGGSLRLSCAASGSIFGFYAMGWYRQSPGKERELVAGISYGDSSTYYADSVKGSFTISRDNAKNTVYLQMNSLKPEDTAVYYCAAGHRQKYNWGRYDYWGQGTQVTVSS | low polyreactivity |
| QVQLVESGGGLVPAGGSLRLSCAASGSIFLAYAMGWYRQAPGKERELVAAITSIDGITSYADSVKGRFTISRDNAKNTVYLQMNSLTPEDTAVSYCAAPDGHWIRQWDTFEYWGQGTQVTVSS | low polyreactivity |
| QVQLVESGGGLVPAGGSLRLSCAASGSIFTNAMGWYRQAPGKERELVAAIDANAGDTHYADSVKGRFTISRDNAKNTVYLQMNSLKPEDTAVYSCNADVTERLWTGEDDYWGQGTQVTVSS | low polyreactivity |
| QVQLVESGGGLVPAGGSLRLSCAASGSIFVQNAMGWYRQAPGKERELVAVINSGDSTNYADSVKGRFTISRDNAKNTVYLQMNSLKPEDTAVYYCNADVSYTSEDQRALFTNVYYWGQGTQVTVSS | low polyreactivity |
| QVQLVESGGGLVPAGGSLRLSCAASGYTFYFYAMGWYRQAPGKERELVAAITGGGTTSYADSVKGRFTISRDNAKNTVYLQMNSLKPEDTADSYCNVLFADKSDYWGQATQVTVSS | low polyreactivity |
| QVQLVESGGGLVPAGGSLRLSCASSGITFRVYVMGWYRQAPGKESELVAPIDDNGGSTYYADSVKGRFTISRDNAKNTVYLQMNSLKPEDTAVYYCAKAIVYSLLEYGWVDYDDWGQGTQLTVSS | low polyreactivity |
| QVQLVESGGGLVPARGSLRLSWAASGSTFSLYAMGWYRQAPGKERELVAAISWSGGNTYYADSVKGRFTISRDNAKNTVYLQMNSLKPEDTAVYYCAAEGKTFHRYYLYSYDYWGQGTQVTVSS | high polyreactivity |
